Results from patent US20220213201A1 (PHARMABCINE, published 2022).

B1: anti-TIE2 antibody 3D6 (IgG) (antibody, V domains shown)
VH: QVQLVESGGGLVQPGGSLRLSCIGSGFTFSRYNINWVRQAPGKGLEWVSSISSSGRFIHYAGSVKGRFTVSRDNTKNSVSLQMNSLRAEDTAVYYCARDSPTQGPYYYYGMDVWGQGTTITVSS
VL: SYELTQPPSESVAPGKTATITCGGNKIGSKSVHWYQQKPGQAPLMVIYYDSDRPSGIPERFSGSNSGNTATLTISRVEVGDEADYYCQVWDSSSDRPVFGGGTKLTVLG
notes: also called 3D6 clone
B2: 4E2 monoclonal scFv phage (scFv)
chain: QVQLVQSGGGLIQPGGSLRLSCAASGFTFSDYAMHWVRQAPGKGLEWVALISFDGNNQYYADSVKGRFTISRDNSKNTIYLQMNSLRAEDTAVYYCTTDTMSGYDWEDAFDIWGQGTMITVSSDIQMTQSPSSLSASIGDRVTITCRASQSIGRWLAWYQQKPGKAPKLLIYAASSLQSGVPSRFSGSGSGTDFTLTISSLQPEDFATYYCQQSYSTPYTFGQGTKVEIKR
B3: 2F2 monoclonal scFv phage (scFv)
chain: QVQLVESGGGLVQPGGSLRLSCAASGFTFSSYAMTWVRQAPGKGLEWVSRISGSGGSTNYADSVKGRFTISRDNSKNTLYLQMNSLRAEDTAVYYCARGGLHHGFDIWGQGTMVTVSSSYELTQPPSLSVAPGKTARITCDGDNIESKSVHWYQQKPGQAPVLVIYYDNDRPSGIPERFSGSNSGNTATLTISRVEAGDEADYYCQVWDTYTDQPVFGGGTKLTVLG
B4: anti-TIE2 antibody 1A9 (IgG) (antibody, V domains shown)
VH: QMQLVQSEAEVKKPGASVKVSCKASGYTFNSYDIHWVRQAPGQGLEWMGVVNPPGGTGSTVYAQKFEDRLTLTTDMSTSTAYMELSSLRSEDTAVYYCARDYNRAPPTLDVWGQGTTITVSS
VL: NFMLTQPASVSGSPGQSITISCTGSSSDVGGYNYVSWYQQHPGKAPQLIIYDVTKRPSGVSNRFSGSKSGNSASLTISGLQAEDEADYYCSSYSSSTFYVFGTGTKVTVLG
notes: also called 1A9 clone
B5: anti-TIE2 antibody 4E2 (IgG) (antibody, V domains shown)
VH: QVQLVQSGGGLIQPGGSLRLSCAASGFTFSDYAMHWVRQAPGKGLEWVALISFDGNNQYYADSVKGRFTISRDNSKNTIYLQMNSLRAEDTAVYYCTTDTMSGYDWEDAFDIWGQGTMITVSS
VL: DIQMTQSPSSLSASIGDRVTITCRASQSIGRWLAWYQQKPGKAPKLLIYAASSLQSGVPSRFSGSGSGTDFTLTISSLQPEDFATYYCQQSYSTPYTFGQGTKVEIKR
notes: also called 4E2 clone
B6: anti-TIE2 antibody 11F (IgG) (antibody, V domains shown)
VH: QVQLVESGGGVVQPGRSLRLSCSASGFSFSDHAMHWVRQAPGRGLEWVATVWPDGSNKYYVDSVNGRFSISRDNSKNTVSLQMNSLRAEDTAVYYCARDSGPISRGDLTYWGPGVLVTVSS
VL: NFMLTQPHSVSESPGKTVIISCTGSGGSIASNYVQWYQQRPGSAPTIVIYEDDQRPSGVPDRYSGSTDSSSNSASLTISGLRAEDEADYYCQSYDDTNVVFGGGTKLTVLG
notes: also called 11F antibody; No. 6
B7: 1A9 monoclonal scFv phage (scFv)
chain: QMQLVQSEAEVKKPGASVKVSCKASGYTFNSYDIHWVRQAPGQGLEWMGVVNPPGGTGSTVYAQKFEDRLTLTTDMSTSTAYMELSSLRSEDTAVYYCARDYNRAPPTLDVWGQGTTITVSSNFMLTQPASVSGSPGQSITISCTGSSSDVGGYNYVSWYQQHPGKAPQLIIYDVTKRPSGVSNRFSGSKSGNSASLTISGLQAEDEADYYCSSYSSSTFYVFGTGTKVTVLG
B8: anti-TIE2 antibody 2F2 (IgG) (antibody, V domains shown)
VH: QVQLVESGGGLVQPGGSLRLSCAASGFTFSSYAMTWVRQAPGKGLEWVSRISGSGGSTNYADSVKGRFTISRDNSKNTLYLQMNSLRAEDTAVYYCARGGLHHGFDIWGQGTMVTVSS
VL: SYELTQPPSLSVAPGKTARITCDGDNIESKSVHWYQQKPGQAPVLVIYYDNDRPSGIPERFSGSNSGNTATLTISRVEAGDEADYYCQVWDTYTDQPVFGGGTKLTVLG
notes: also called 2F2 clone
B9: 3D6 monoclonal scFv phage (scFv)
chain: QVQLVESGGGLVQPGGSLRLSCIGSGFTFSRYNINWVRQAPGKGLEWVSSISSSGRFIHYAGSVKGRFTVSRDNTKNSVSLQMNSLRAEDTAVYYCARDSPTQGPYYYYGMDVWGQGTTITVSSSYELTQPPSESVAPGKTATITCGGNKIGSKSVHWYQQKPGQAPLMVIYYDSDRPSGIPERFSGSNSGNTATLTISRVEVGDEADYYCQVWDSSSDRPVFGGGTKLTVLG

Legend:
[1] = biological target: T1, mouse Tie2-his (Sino Biological, 51087-M08H) (mouse, UniProt Q02858 23-743); assay: ELISA, purified IgG on coated mTIE2-his (1 µg/mL), HRP anti-human detection
T1 construct: Bought protein; also called mTIE2-his; mTie2-his; not shown: his tag
T1 sequence (Q02858 23-743 limits assumed, stated change not applied): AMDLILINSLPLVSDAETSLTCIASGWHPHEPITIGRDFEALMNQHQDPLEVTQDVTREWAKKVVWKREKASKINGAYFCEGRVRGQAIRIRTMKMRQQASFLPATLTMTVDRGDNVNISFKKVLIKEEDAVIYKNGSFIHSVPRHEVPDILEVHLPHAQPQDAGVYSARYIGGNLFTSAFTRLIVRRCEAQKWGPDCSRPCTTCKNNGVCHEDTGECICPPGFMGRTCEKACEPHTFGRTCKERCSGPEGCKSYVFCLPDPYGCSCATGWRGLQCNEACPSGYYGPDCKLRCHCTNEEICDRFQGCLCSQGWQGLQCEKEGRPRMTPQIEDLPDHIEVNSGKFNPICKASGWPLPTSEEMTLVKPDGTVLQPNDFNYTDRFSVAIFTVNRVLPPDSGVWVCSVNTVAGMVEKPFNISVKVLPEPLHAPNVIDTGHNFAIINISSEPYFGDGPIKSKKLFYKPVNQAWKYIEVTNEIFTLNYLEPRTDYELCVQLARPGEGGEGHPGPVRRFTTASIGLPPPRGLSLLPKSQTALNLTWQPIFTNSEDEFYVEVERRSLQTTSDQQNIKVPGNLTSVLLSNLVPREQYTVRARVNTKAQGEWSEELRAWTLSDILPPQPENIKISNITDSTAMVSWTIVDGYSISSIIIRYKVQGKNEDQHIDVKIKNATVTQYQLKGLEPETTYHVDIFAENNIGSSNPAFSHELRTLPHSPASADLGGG
Procedure: (§1) Whether or not the binding of TIE2 to the ScFv phage clone was maintained in IgG was determined through ELISA. 1 μg/ml of Ag (hTIE2-his: Sino Biological, 10700-H08H; mTIE2-his: Sino Biological, 51087-M08H) was plated at 100 μl/well onto a 96-well plate and incubated at 4° C. overnight. The next day, the cells grown the day before were centrifuged at 3,000 rpm for 10 minutes and stored at 4° C. The plated Ag was washed 3 times with 0.1% TBST and 200 μl of 2% BSA blocking buffer was added thereto, followed by incubation at 25° C. for 2 hours. After blocking was completed, the resulting product was washed 3 times with 0.1% TBST. […] After phage binding, the resulting product was washed 3 times with 0.1% TBST and 100 μl of HRP-conjugated goat anti-human Ab (1:3000, Sino, 11973-MM05) was added thereto, followed by incubation at 25° C. for 1 hour. After reaction, the resulting product was washed 3 times with 0.1% TBST, 100 μl of TMB (BD TMB substrate reagent set * 555214) was added thereto, color was developed for 3 to 5 minutes, 50 μl of a stop solution was added thereto, and then an assay was performed using an ELISA reader.

[2] = biological target: T2, human TIE2-his (Sino Biological, 10700-H08H) (human, UniProt Q02763 23-745); assay: ELISA, purified IgG on coated hTIE2-his (1 µg/mL), HRP anti-human detection
T2 construct: Bought protein; also called hTIE2-his; hTIE2; not shown: his tag
T2 sequence (Q02763 23-745 limits assumed): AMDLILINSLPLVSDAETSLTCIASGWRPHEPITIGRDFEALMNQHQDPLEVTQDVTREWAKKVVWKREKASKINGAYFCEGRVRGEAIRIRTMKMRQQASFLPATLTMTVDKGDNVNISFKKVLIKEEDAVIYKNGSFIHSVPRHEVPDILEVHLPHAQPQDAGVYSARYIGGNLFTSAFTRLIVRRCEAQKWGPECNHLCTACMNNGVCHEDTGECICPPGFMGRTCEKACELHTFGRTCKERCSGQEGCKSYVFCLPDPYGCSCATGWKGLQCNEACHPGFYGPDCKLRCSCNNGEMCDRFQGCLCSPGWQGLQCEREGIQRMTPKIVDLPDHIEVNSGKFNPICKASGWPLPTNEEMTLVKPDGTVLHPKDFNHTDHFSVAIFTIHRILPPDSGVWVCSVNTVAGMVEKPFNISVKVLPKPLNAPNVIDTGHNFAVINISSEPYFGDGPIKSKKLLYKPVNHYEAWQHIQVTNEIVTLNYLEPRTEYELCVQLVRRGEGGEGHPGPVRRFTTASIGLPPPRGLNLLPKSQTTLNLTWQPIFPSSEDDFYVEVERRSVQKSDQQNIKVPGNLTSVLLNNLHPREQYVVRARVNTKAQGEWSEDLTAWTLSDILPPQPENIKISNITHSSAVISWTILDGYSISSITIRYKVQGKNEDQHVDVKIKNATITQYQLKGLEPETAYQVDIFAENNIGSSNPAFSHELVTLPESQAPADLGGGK
Procedure: as §1

[3] = biological target: T3, mouse TIE2 overexpressed on CHO-K1 cells (mouse, UniProt Q02858 23-1122); assay: flow cytometry on mTIE2/CHO-K1 cells, PE anti-human IgG-Fc secondary
T3 construct: whole, on cells; also called mTIE2/CHO-K1
T3 sequence (Q02858 23-1122): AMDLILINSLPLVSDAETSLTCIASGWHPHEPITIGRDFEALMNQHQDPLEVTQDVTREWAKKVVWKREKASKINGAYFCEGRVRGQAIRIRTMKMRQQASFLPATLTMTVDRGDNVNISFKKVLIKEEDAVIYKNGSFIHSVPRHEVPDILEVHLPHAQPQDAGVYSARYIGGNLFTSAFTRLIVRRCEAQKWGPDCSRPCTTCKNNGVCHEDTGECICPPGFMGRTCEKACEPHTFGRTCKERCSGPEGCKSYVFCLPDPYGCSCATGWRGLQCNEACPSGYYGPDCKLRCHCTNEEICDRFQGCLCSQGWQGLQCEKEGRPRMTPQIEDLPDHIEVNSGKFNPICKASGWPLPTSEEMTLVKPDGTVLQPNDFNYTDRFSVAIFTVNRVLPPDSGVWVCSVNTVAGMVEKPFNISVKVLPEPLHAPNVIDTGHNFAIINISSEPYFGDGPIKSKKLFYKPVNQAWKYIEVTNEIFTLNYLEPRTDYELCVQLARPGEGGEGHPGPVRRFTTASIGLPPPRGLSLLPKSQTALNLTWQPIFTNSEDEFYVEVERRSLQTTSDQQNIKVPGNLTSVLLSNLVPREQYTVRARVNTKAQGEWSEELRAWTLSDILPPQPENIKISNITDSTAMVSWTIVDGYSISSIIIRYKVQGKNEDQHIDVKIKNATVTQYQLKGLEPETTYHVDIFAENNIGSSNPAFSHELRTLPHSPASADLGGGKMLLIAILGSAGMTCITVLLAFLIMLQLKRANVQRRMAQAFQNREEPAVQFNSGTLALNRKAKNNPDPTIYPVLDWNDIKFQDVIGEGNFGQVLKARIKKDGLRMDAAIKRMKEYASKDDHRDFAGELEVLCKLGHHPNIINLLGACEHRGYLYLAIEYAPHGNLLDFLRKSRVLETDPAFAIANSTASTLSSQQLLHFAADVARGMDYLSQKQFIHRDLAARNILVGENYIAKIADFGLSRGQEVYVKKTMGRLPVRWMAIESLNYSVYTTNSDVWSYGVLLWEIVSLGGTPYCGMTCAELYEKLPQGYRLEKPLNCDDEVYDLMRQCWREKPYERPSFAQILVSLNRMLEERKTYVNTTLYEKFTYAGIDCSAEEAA
Procedure: (§2) In order to determine the binding to cell-expressing TIE2, the binding to the self-established human/mouse TIE2 overexpressing CHO-K1 cell lines (hTIE2/CHO-K1, mTIE2/CHO-K1) was measured using flow cytometry. Each cell line was maintained and cultured, hTIE2 CHO-K1 was washed with PBS, 5 mM EDTA was added thereto to obtain a cell suspension, and each cell was recovered through centrifugation. A cell suspension of 5×10⁶ cells/mL was prepared using FACS-dedicated buffer (PBS containing 2% FBS, 0.05% sodium azide), and 100 μL of the cell suspension was dispensed into each tube. 100 μL of 2 μg/mL clones was added to each test tube and allowed to stand at 4° C. for 30 minutes to induce cell binding. The cells were washed with 2 mL of FACS buffer, 100 μL of a secondary antibody dilution (1/500, PE-conjugated anti-human IgG-Fc polyclonal antibody fragment, *A80-248PE, Bethyl Laboratories Inc. US) was added thereto, and the resulting mixture was allowed to stand at 4° C. for 20 minutes to perform fluorescent labeling. The cells were washed with 2 mL of FACS buffer and then suspended in 200 μL of FACS buffer. […]

[4] = biological target: T4, human TIE2 overexpressed on CHO-K1 cells (human, UniProt Q02763 23-1124); assay: flow cytometry on hTIE2/CHO-K1 cells, 2 µg/mL clone, PE anti-human IgG-Fc secondary
T4 construct: whole, on cells; also called hTIE2/CHO-K1; hTIE2 CHO-K1
T4 sequence (Q02763 23-1124): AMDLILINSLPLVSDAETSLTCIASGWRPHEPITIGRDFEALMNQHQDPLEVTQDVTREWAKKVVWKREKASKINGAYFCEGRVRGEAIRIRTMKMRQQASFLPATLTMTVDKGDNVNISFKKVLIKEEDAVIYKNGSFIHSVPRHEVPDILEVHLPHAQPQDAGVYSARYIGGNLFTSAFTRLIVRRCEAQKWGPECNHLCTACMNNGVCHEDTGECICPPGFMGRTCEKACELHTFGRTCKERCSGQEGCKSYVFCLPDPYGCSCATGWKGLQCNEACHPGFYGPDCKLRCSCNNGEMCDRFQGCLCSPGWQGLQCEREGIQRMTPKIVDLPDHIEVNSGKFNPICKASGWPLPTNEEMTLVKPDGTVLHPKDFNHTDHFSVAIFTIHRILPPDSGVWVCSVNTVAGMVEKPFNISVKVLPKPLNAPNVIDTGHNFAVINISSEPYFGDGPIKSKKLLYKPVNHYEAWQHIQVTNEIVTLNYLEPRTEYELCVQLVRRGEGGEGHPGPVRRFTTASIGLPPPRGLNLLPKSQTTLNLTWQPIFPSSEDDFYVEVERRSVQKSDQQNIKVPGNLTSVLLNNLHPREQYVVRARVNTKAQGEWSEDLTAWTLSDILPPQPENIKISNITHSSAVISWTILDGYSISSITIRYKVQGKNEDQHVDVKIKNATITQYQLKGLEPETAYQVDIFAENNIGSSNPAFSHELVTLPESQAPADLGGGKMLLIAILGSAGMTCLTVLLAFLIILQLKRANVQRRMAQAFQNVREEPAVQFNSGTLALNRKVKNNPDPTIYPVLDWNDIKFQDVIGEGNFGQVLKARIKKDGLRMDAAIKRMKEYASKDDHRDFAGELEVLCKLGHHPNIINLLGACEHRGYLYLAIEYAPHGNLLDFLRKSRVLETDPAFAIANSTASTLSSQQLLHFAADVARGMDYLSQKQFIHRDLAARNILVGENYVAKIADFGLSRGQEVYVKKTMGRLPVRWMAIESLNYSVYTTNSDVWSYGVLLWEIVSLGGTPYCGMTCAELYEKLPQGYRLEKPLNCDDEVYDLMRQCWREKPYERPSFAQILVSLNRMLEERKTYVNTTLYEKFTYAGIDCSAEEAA
Procedure: as §2

[5] = biological target: T1, mouse Tie2-his (Sino Biological, …); assay: ELISA, scFv phage on mouse TIE2 antigen, HRP anti-M13 detection
[6] = biological target: T2, human TIE2-his (Sino Biological, …); assay: ELISA, scFv phage on coated hTIE2-his, HRP anti-M13 detection
[7] = biological target: T1, mouse Tie2-his (Sino Biological, …); assay: Octet (BLI), antibody fixed on the biosensor, mTie2-His in solution
Procedure: (§3) The anti-TIE2 antibody was fixed at the biosensor and tested according to the manufacturer's manual. The binding kinetics at each concentration of human TIE2 and mouse Tie2 were measured to calculate the binding rate constant (kₒₙ), dissociation rate constant (koff), and binding constant (KD) (Table 4).

[8] = biological target: T2, human TIE2-his (Sino Biological, …); assay: Octet (BLI), antibody fixed on the biosensor, hTIE2-his in solution
Procedure: as §3

Row | Binder | binding result [1] | Mouse ELISA [5] | Human ELISA [6] | Kd [8] | koff [8] | kon [8] | further results
1 | B1 | no binding |  |  |  |  |  | binding result [2]: binds; binding result [3]: no binding; binding result [4]: binds
2 | B2 |  | 0.4 | 1.2 |  |  |  | 
3 | B3 |  | 0.1 | 1.9 |  |  |  | 
4 | B4 | no binding |  |  |  |  |  | binding result [2]: binds; binding result [4]: binds
5 | B5 |  |  |  | < 0.001 nM | < 1e-07 s⁻¹ | 106000 M⁻¹ s⁻¹ | Kd [7]: 13.8 nM; koff [7]: 0.00291 s⁻¹; kon [7]: 212000 M⁻¹ s⁻¹
6 | B6 |  |  |  | 2.76 nM | 0.000152 s⁻¹ | 55300 M⁻¹ s⁻¹ | 
7 | B7 |  | 0 | 2.4 |  |  |  | 
8 | B8 | no binding |  |  | 0.794 nM | 0.000116 s⁻¹ | 146000 M⁻¹ s⁻¹ | binding result [3]: no binding
9 | B9 |  | 0.1 | 2.1 |  |  |  | 
